From the supplement of paper PMC12764529
± gives the half width of the 95% confidence interval.

Assays:
[1] = folding stability dG unfold from chymotrypsin proteolysis; higher = more stable
Protocol: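 Folding stability of de novo designed mini-proteins (<80 aa, no Cys; designed by TrROS, TrMRF, ProteinMPNN and the joint model) was measured by cDNA display proteolysis with trypsin and chymotrypsin. Each protease was used at 11 concentrations in a threefold dilution series plus a no-protease condition. K50 was inferred by Bayesian fitting of sequencing counts, and dG unfold was derived against a sequence-predicted unfolded-state K50 (Tsuboyama et al. method). Sequences shown include variable-length N-terminal GS-type padding (SAGGSAGG...) inside a display construct carrying a PA tag. Rows were kept only if the AF2 dimer inter-PAE was >15, to exclude likely homo-oligomers.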

[2] = folding stability dG unfold (combined trypsin and chymotrypsin); higher = more stable
In short: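 Unfolding free energy was derived, per protease or combined, against a sequence-predicted unfolded-state K50 and a shared folded-state K50, starting from K50 inferred by Bayesian fitting of sequencing counts. Digestion with trypsin and chymotrypsin was carried out on designed mini-proteins under 80 residues without cysteine in a PA-tagged cDNA display construct. Only designs with AlphaFold2 dimer inter-PAE above 15 were kept.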

| Sequence | folding stability dG unfold [1] | folding stability dG unfold [2] |
| --- | --- | --- |
| SAGGSADNENNENQKPKPKPKKKLEVTIPVPLPPGDSLEEAMEQAYNIANHLAQSGKLDEVEISIFSAGGSA [r15_450_TrROS] | -1.01 ± 1.67 kJ/mol | < -4.18 kJ/mol |
| SAGGSAGGSAGPWVPIAPGPNGMWIWAEPDPDKFTIRMFPMSPDGKIPDVQEHEIPPEDFSAGGSAGGSAGG [r11_88_TrROS] | 0.653 ± 0.92 kJ/mol | -0.904 ± 0.711 kJ/mol |
| SAGGSAGGSAGGSGPDETILVTRKVTTTEPVLLEHDGTPRVRERTVTRTSSTTERVDLSSAGGSAGGSAGGS [r4_271_JUSTAS] | -0.61 ± 0.879 kJ/mol | -3.49 ± 1.34 kJ/mol |
| SAGGSAGGSASYSVTISPEERIEPVVDYKTGERRLVERRRVVVTADPKLSPALKAAILAALSSAGGSAGGSA [r18_438_JUSTAS] | 0.601 ± 0.837 kJ/mol | -0.993 ± 0.837 kJ/mol |
| SAGGSAGGSMTIVNPGTPETLAATVKETIKAGKKVKVIYVSPDNPEPVAEAEVEGTAEELEKESAGGSAGGS [r12_241_TrMRF] | 0.807 ± 0.46 kJ/mol | -2.05 ± 1.21 kJ/mol |
| SAGGSMLVTVKFKTLPDGTVDHNPKLLAKVDGPEPDPADPATVRLPVDPAVVAQWPEEVAEEMEILASAGGS [r16_328_JUSTAS] | 0.647 ± 0.36 kJ/mol | -0.664 ± 0.31 kJ/mol |
| SAGGSAGGSKKIVLVLKVKKEKAKEKVEKAKKELEKALPKDYKIKSIEVKYDPETDKVIIVADSAGGSAGGS [r12_308_TrMRF] | 1.57 ± 2.05 kJ/mol | -0.223 ± 1.17 kJ/mol |
| SAGGSAGGSAGGSRYLRIETDRIDDVVEAALKTPGVEEVRVDTPADDRFYVLVKVPDEVSAGGSAGGSAGGS [r4_1_TrMRF] | -4.74 ± 3.85 kJ/mol | < -4.18 kJ/mol |
| SAGGSAGPMPSTVTTLATAPLPDGTLVVTTLERTPDSVTRTTTTYKPADGSPLGTASTTYPAPAALSAGGSA [r15_716_JUSTAS] | 3.38 ± 0.628 kJ/mol | -0.117 ± 0.586 kJ/mol |
| SAGGSAGGSAGEVLIVAPAALLKEAIGPGVEVLAVDDDVVVVRVPVPPVPLTDANGNPLPSAGGSAGGSAGG [r11_828_TrMRF] | 2.5 ± 0.197 kJ/mol | -0.629 ± 1.26 kJ/mol |
| SAGGSAGGSSEVIEKLLELNPDVEVVSVTPTPNGVTVTVATKEGGEETVSSAELEKLGVKIRLSAGGSAGGS [r12_3_JUSTAS] | 1.18 ± 0.418 kJ/mol | 0.419 ± 1.17 kJ/mol |
| SAGGSASTREVGDKTLTVTPIKLPNGTNLVLLRTFDPATGKVPVLAFPPEEGNPLGESVLPASELLSAGGSA [r15_671_JUSTAS] | -2.74 ± 0.586 kJ/mol | < -4.18 kJ/mol |
| SAGGSAGGSAGAPSAPRSVPEVRLLNIDIPASADDPESVELARRLARAALENDAVVVINESAGGSAGGSAGG [r11_519_TrMRF] | 3.45 ± 0.46 kJ/mol | 1.12 ± 0.46 kJ/mol |
| SAGGSAGGSAAEPPPPATIEVLVLNEDGYVYRAEIRVNEDGEITIEVEKIPVKPGESLEELSAGGSAGGSAG [r3_437_TrROS_Hall] | 16.7 ± 0.962 kJ/mol | 15.9 ± 1.46 kJ/mol |
| SAGGSAGGSQKPTIEKEGGRYYIRNPDNGKSFPINIEREDNEWKFEFGDGEITIPGEFEIQRRSAGGSAGGS [r12_683_TrROS] | -1.29 ± 0.586 kJ/mol | < -4.18 kJ/mol |
| SAGGPWHEITVRAKGPPGNTPEQAVDEVADELADNNPDFTVEIQEVEVNPEDGQVEATIRVEDGKIVSAGGS [r8_26_TrROS] | -0.369 ± 0.142 kJ/mol | < -4.18 kJ/mol |
| SAGGSAGGSDDAVTFTFTSAPTRLLYLDNPKTFPGSATVTLPAGNPDEFRIERFAPDTAELKPSAGGSAGGS [r20_150_TrMRF] | -1.79 ± 2.59 kJ/mol | < -4.18 kJ/mol |
| SAPMTPAERARPRIKKLVNLLAEDGNFKVDIERDPGDPGVVVTIKLDPNSREKFAERLGIPRDELYDLISAG [r14_688_TrROS] | -0.191 ± 0.962 kJ/mol | -1.56 ± 1.72 kJ/mol |
| SAGGSAGGSAKAKVLEVEEKPVGGVNRFKIEVPLENGEPQKFYVLVEVPEDGDEKFAVKPGSAGGSAGGSAG [r3_94_TrMRF] | 0.419 ± 0.669 kJ/mol | -1.34 ± 0.753 kJ/mol |
| SAGGSAGGSAGGMYIPGDLVEWVSPVGDKWRVGLIGKPQTFDWKDIPAPSNENIVFVPGSAGGSAGGSAGGS [r10_665_TrMRF] | -1.64 ± 1.21 kJ/mol | < -4.18 kJ/mol |
| SAGGSAGGSAGSNVVYLGEEVITEVDPYSDKPYTVKVKVYLEPTPEGEKIIEEVLEKELLSAGGSAGGSAGG [r11_113_JUSTAS] | -3.01 ± 1.21 kJ/mol | -3.93 ± 1.38 kJ/mol |
| SAGGTATVEAALAALPADLPRGSLALHPETGLVEPLEPSPEDAVAYPVNPATGERYPLRVEADAVRLLSAGG [r13_803_JUSTAS] | 1.93 ± 0.331 kJ/mol | -2.16 ± 0.628 kJ/mol |
| SAGTVTSSTTPLPDGSLLSTTTTTSPVSGTSVTTSTTTTTPVTPTTPPPPPRPVYPRYYDGVTEPALSLSAG [r5_169_JUSTAS] | -0.502 ± 0.285 kJ/mol | -2.67 ± 0.753 kJ/mol |
| SAGGSAGGSAMVTVTILSEDTTDSPRTYTVLFPAEGKALPLPFPADASEAEVRARALELLASAGGSAGGSAG [r3_142_JUSTAS] | 2.82 ± 0.628 kJ/mol | < -4.18 kJ/mol |

| Sequence | folding stability dG unfold [1] | folding stability dG unfold [2] |
| --- | --- | --- |
| SAGGSAGGSASLSLDQVGTVTFPANGAPALVTRLPDGSVALYFPATGRVLYLDGPNDVTPDSAGGSAGGSAG [r3_96_TrMRF] | 4.06 ± 0.247 kJ/mol | 2.31 ± 0.314 kJ/mol |
| SAGGSAGGSAGGAKPVTFTFPDGTKAVSVEETPTSVVLYDPGPGALYVLDKETKTITPASAGGSAGGSAGGS [r10_289_TrMRF] | -2.14 ± 1.21 kJ/mol | -3.01 ± 1.42 kJ/mol |
| SAGGSMSTTLPDGGKVTVYSDPNKPLTLVEVELPDRRLVVLRPVSAPEDGTIVAPVEVRPLEEVEEASAGGS [r16_85_JUSTAS] | -0.0452 ± 0.753 kJ/mol | < -4.18 kJ/mol |
| SAGGMTETATTTTTLPDGTVVTTGTTTVTEGSSTTTTTFTTVTTVAPVPPPPYPPAPLPWPEDPVLASAGGS [r8_269_JUSTAS] | 0.596 ± 0.628 kJ/mol | < -4.18 kJ/mol |
| SAGGSAGGSAMPIPKVLVLKDEGTLEEAREAALKYVKEDEKVIVKIGDKEIVIPAEELKKKSAGGSAGGSAG [r3_50_TrMRF] | -0.994 ± 2.09 kJ/mol | < -4.18 kJ/mol |
| SAGGSAGGSAGMEVIINDPEKAKNIPVNSKVKLPNGKEYKVKKVEYNPEIGYVKFIVSPESAGGSAGGSAGG [r11_316_TrMRF] | -2.05 ± 1.55 kJ/mol | -2.46 ± 1.42 kJ/mol |
| SAGMKPGETRHIPIRPGMPPEEFIEEIEAEGPVKIWFPGRKREIDSPDDIEDNFRNFPEPMPIEVKVPSAGG [r19_95_TrROS] | 2.91 ± 0.502 kJ/mol | 0.657 ± 1.17 kJ/mol |
| SAGGSAGGSAGPPGEPVRIKLKFPNGNPIEIPGKLDDAEEIAEELQSEGFPFSKVEVEKWSAGGSAGGSAGG [r11_946_TrROS] | -1.08 ± 2.05 kJ/mol | -2.52 ± 2.13 kJ/mol |
| SAGGENVIIRYKDPDRFKEAIQDAPGIPPENVKTKPNPNGWNEVTFPNPEALDRLKKAGYPVDKIEPSAGGS [r16_381_TrROS] | -1.47 ± 1.59 kJ/mol | < -4.18 kJ/mol |
| SAGGSAGGSAIPPDAPVEVPVRVRVGGEEFDVTATLTARPDGSVGVDVDVDVPADEAEIEPASAGGSAGGSA [r18_428_TrMRF] | 0.496 ± 1.34 kJ/mol | < -4.18 kJ/mol |
| SAGGSAGGSAGGSSMKYFTRSASPDTTFTVKTPNGGVVNVTPTAAPGTYKYTFTLPGNSSAGGSAGGSAGGS [r4_360_JUSTAS] | -1.76 ± 1.84 kJ/mol | < -4.18 kJ/mol |
| SAGGSAGGSAGGMIIVPVVTEETVDVTFRKTPEGVWEPVGPQTITTTTTLTIDPTKGRLSAGGSAGGSAGGS [r10_93_JUSTAS] | 0.564 ± 1.8 kJ/mol | -1.85 ± 1.55 kJ/mol |
| SAGGSAGGSAGGDPIRVDDIEPNPDRLEIDIRNFGNGNQKKHTIPPGSPPKIKPGDYIRSAGGSAGGSAGGS [r10_834_TrROS] | 3.59 ± 0.502 kJ/mol | 0.958 ± 1.09 kJ/mol |
| SAGGSAGGSAGMKTRVTTFTYTEPVLLPDTGELRTVTTTVTFNKPLPEEPLFFTNTPNAGSAGGSAGGSAGG [r17_493_JUSTAS] | 0.624 ± 0.795 kJ/mol | -0.66 ± 0.795 kJ/mol |
| SAGGMTVTVPFTSEEELEAAIEAAPSSLTTVTTTDPARGLRRTLNVDPATRAVVETEEEAVDPEDPALSAGG [r13_945_JUSTAS] | -1.58 ± 0.586 kJ/mol | < -4.18 kJ/mol |
| SAMTTTTTTTDPASGRTVVTTTTPLPDGSVVTTEVDLSNPVRTTTTHPLTDGTPAPTTTTTALPADATLSAG [r14_64_JUSTAS] | 0.23 ± 0.192 kJ/mol | -1.44 ± 0.502 kJ/mol |
| VNPRTLTYDPVTNRIDAATPDGTPVTVTAGSSGYTATVTDPATGAPTVVPLTEAELAALEADPAFPLATSNS [r1_18_JUSTAS] | 2.73 ± 0.238 kJ/mol | -0.481 ± 0.234 kJ/mol |
| SMEEKEEVLSVEVDPVGEVVVTRTLVKKSAVDPTNPNNPVPLSLEEIVEPVPLPPPVPLPVPGNPRFEAASA [r9_357_JUSTAS] | 3.22 ± 0.301 kJ/mol | 0.643 ± 0.339 kJ/mol |
| SAGGDSLPENVIKIELEFEIETEDGSKIELKLEIYISPDNKIYVKAEATIILPDKPIKIEIDFEFDVSAGGS [r16_563_TrMRF] | 14 ± 1.13 kJ/mol | 15 ± 3.68 kJ/mol |
| SAGGPIKRDPDGKIEIHYNEDNGRWHVKIRDPGKPKKEREFKSPDDANEFAKSFANDGWKIDKVEPYPSAGG [r13_727_TrROS] | 4.51 ± 1.05 kJ/mol | 3.49 ± 1.34 kJ/mol |
| SAGGMIRRITIYITDPGPSAPATTTTITVDVPPDRPDVPDEEVAQRVAESIAPKTGATATVEKIEEVSAGGS [r8_101_JUSTAS] | 1.7 ± 0.297 kJ/mol | -0.666 ± 0.628 kJ/mol |
| SAGGSAGGSGMNVKTIKIYSPEGGETTVPVTGTTVTIGGETVTVTSDVVVPVPPTIKSIEVVGSAGGSAGGS [r12_779_JUSTAS] | 3.22 ± 0.0837 kJ/mol | 1.16 ± 0.343 kJ/mol |
| SAGGSAGGSAGMKLIEFPPGEEFEEFIKNLPGPIKSVERTKIEPEKVLAKIVLELPPSNLSAGGSAGGSAGG [r11_143_JUSTAS] | -2.28 ± 1.51 kJ/mol | < -4.18 kJ/mol |
